Experimental findings from US12295997B2, “Prostate neoantigens and their uses” (Janssen Biotech, Inc., priority 2020, dated 2025) are described below.

The assay relates to CD8+ and CD4+ T cells (autologous CD3+ Pan-T cells isolated from human normal PBMCs). The experiment in a line: Exogenous autologous normal donor restimulation assay (15-mer overlapping peptide pools on CD1c+ dendritic cells, TNFα/IFNγ flow cytometry). It is filed as cell-based. The conditions noted are these: 15-mer overlapping peptide pool; for Max. Fold Change over background CD4+ TNFαINFγ double positive DP / Max. Fold Change over background CD8+ TNFαINFγ double positive DP / Max. Frequency of CD4+ TNFαINFγ DP / Max. Frequency of CD8+ TNFαINFγ DP: Table 28, additional neoantigens, highest across normal donors; for Maximum Fold Change Over Background CD4+ cells / Maximum Fold Change Over Background CD8+ cells / Maximum Frequency of TNFα/IFNγ Double Positive CD4+ T cells / Maximum Frequency of TNFα/IFNγ Double Positive CD8+ T cells: Table 25; for Maximum Fold Change Over Background CD4+ cells: TNFα+IFNγ+ CD4+ T cells; for Maximum Fold Change Over Background CD4+ cells / Maximum Fold Change Over Background CD8+ cells: highest fold change over negative control across normal donors; for Maximum Fold Change Over Background CD8+ cells: TNFα+IFNγ+ CD8+ T cells; for Maximum Frequency of TNFα/IFNγ Double Positive CD4+ T cells / Maximum Frequency of TNFα/IFNγ Double Positive CD8+ T cells: highest frequency across normal donors. The procedure, abridged:
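Autologous CD3+ Pan-T cells from normal donors were co-cultured 12 days with irradiated CD1c+ DCs pulsed with 15-mer overlapping neoantigen peptide pools at 2.5–10 μg/mL, with IL-15 and IL-2 support. Cells were restimulated on day 11, then TNFα/IFNγ double-positive CD8+ and CD4+ frequencies read by flow. Positive means ≥3-fold over DMSO and ≥0.01%.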
In general terms: A flow cytometer gives signals particle by particle.

B1: PVAIKPGTGPPNNSSIHGGSKRSENSYCRDLRGQLRAICCSSYSHDRHTTEERGSRGRHVWRIRRLHTSGLPCCCHSGPHPRRLPDILRLVTSTKTDHTNTTEGTLDYL (peptide, listed as Homo sapiens)
chain: PVAIKPGTGPPNNSSIHGGSKRSENSYCRDLRGQLRAICCSSYSHDRHTTEERGSRGRHVWRIRRLHTSGLPCCCHSGPHPRRLPDILRLVTSTKTDHTNTTEGTLDYL
notes: RBM47 alternative splicing
Turning to B1, the “Max. Fold Change over background CD4+ TNFαINFγ double positive DP” value worked out at 78.51, the “Max. Fold Change over background CD8+ TNFαINFγ double positive DP” value is 4.96, the “Max. Frequency of CD4+ TNFαINFγ DP” value came to 0.61 and the “Max. Frequency of CD8+ TNFαINFγ DP” value was 0.07.

B2: PSGRRTKRLVTLRSGCAIQCWHPRAGPVPSALPHTERPPRLVRGAADPRTVTLGRSPAVMPRAPA (peptide, listed as Homo sapiens)
chain: PSGRRTKRLVTLRSGCAIQCWHPRAGPVPSALPHTERPPRLVRGAADPRTVTLGRSPAVMPRAPA
notes: CCNF alternative splicing
Regarding B2, the “Max. Fold Change over background CD4+ TNFαINFγ double positive DP” value amounted to 129.8, the “Max. Fold Change over background CD8+ TNFαINFγ double positive DP” value amounted to 1544.74, the “Max. Frequency of CD4+ TNFαINFγ DP” value was 0.49 and the “Max. Frequency of CD8+ TNFαINFγ DP” value is 58.7.

B3: WGMELAASRRFSWDHHSAGGPPRVPSVRSGAAQVQPKDPLPLRTLAGCLARTAHLRPGAESLPQPQLHCT (peptide, listed as Homo sapiens)
chain: WGMELAASRRFSWDHHSAGGPPRVPSVRSGAAQVQPKDPLPLRTLAGCLARTAHLRPGAESLPQPQLHCT
notes: INCA1->CAMTA2 gene fusion
B3: the “Maximum Fold Change Over Background CD4+ cells” value amounted to 7.15, the “Maximum Fold Change Over Background CD8+ cells” value worked out at 1.89, the “Maximum Frequency of TNFα/IFNγ Double Positive CD4+ T cells” value is 0.04 and the “Maximum Frequency of TNFα/IFNγ Double Positive CD8+ T cells” value is on record as 0.08.

B4: FVSLTAIQMASSATPWGRWPVATPTAACPRRRPSSLPTGGDSASKKPISRRAPWQPWACPGRSVNSAAPRAWCPPATTPRTQSPSRDLRPRCLSSWSS (peptide, listed as Homo sapiens)
chain: FVSLTAIQMASSATPWGRWPVATPTAACPRRRPSSLPTGGDSASKKPISRRAPWQPWACPGRSVNSAAPRAWCPPATTPRTQSPSRDLRPRCLSSWSS
notes: FASN alternative splicing
Take B4: the “Max. Fold Change over background CD4+ TNFαINFγ double positive DP” value was 293.94, the “Max. Fold Change over background CD8+ TNFαINFγ double positive DP” value was determined as 4.72, the “Max. Frequency of CD4+ TNFαINFγ DP” value came to 1.48 and the “Max. Frequency of CD8+ TNFαINFγ DP” value amounted to 0.09.

B5: LLEPFRRGEPGPRGLLSGSSRGGEGPGRSIEAAPATPLPCCRKNPCRPQPSRFLPPRVLLVIILPKLDCPKLGF (peptide, listed as Homo sapiens)
chain: LLEPFRRGEPGPRGLLSGSSRGGEGPGRSIEAAPATPLPCCRKNPCRPQPSRFLPPRVLLVIILPKLDCPKLGF
notes: AMACR alternative splicing
Turning to B5, the “Max. Fold Change over background CD4+ TNFαINFγ double positive DP” value was 60.93, the “Max. Fold Change over background CD8+ TNFαINFγ double positive DP” value is given as 11.32, the “Max. Frequency of CD4+ TNFαINFγ DP” value came out at 0.23 and the “Max. Frequency of CD8+ TNFαINFγ DP” value was 0.43.

B6: LLNAEDYRCAIHSKEIYLLSPSPHQAMDKFSLCCINCNLCLHVFLLLLFFQNKDVWLISNIILLWIYGGI (peptide, listed as Homo sapiens)
chain: LLNAEDYRCAIHSKEIYLLSPSPHQAMDKFSLCCINCNLCLHVFLLLLFFQNKDVWLISNIILLWIYGGI
notes: TM9SF3 alternative splicing
Turning to B6, the “Max. Fold Change over background CD4+ TNFαINFγ double positive DP” value is 128.76, the “Max. Fold Change over background CD8+ TNFαINFγ double positive DP” value is listed as 6.35, the “Max. Frequency of CD4+ TNFαINFγ DP” value was determined as 0.18 and the “Max. Frequency of CD8+ TNFαINFγ DP” value is reported as 0.6.

B7: QNLQNGGGSRSSATLPGRRRRRWLRRRRQPISVAPAGPPRRPNQKPNPPGGARCVIMRPTWPGTSAFT (peptide, listed as Homo sapiens)
chain: QNLQNGGGSRSSATLPGRRRRRWLRRRRQPISVAPAGPPRRPNQKPNPPGGARCVIMRPTWPGTSAFT
notes: ZFHX3 E763Sfs*61
B7: the “Maximum Fold Change Over Background CD4+ cells” value stood at 4.89, the “Maximum Fold Change Over Background CD8+ cells” value came to 7.92, the “Maximum Frequency of TNFα/IFNγ Double Positive CD4+ T cells” value is 0.04 and the “Maximum Frequency of TNFα/IFNγ Double Positive CD8+ T cells” value was 0.38.

B8: KMRAIQAEGGHGQACCGGAWGWAPGDGGPQGMLTHTLPTLGFQSAWTWRREDADRAWRTPKACASRRWSI (peptide, listed as Homo sapiens)
chain: KMRAIQAEGGHGQACCGGAWGWAPGDGGPQGMLTHTLPTLGFQSAWTWRREDADRAWRTPKACASRRWSI
notes: LRRC45 alternative splicing
For the molecule B8, the “Max. Fold Change over background CD4+ TNFαINFγ double positive DP” value is on record as 9.48, the “Max. Fold Change over background CD8+ TNFαINFγ double positive DP” value is listed as 16.25, the “Max. Frequency of CD4+ TNFαINFγ DP” value is listed as 0.01 and the “Max. Frequency of CD8+ TNFαINFγ DP” value turned out to be 0.26.

B9: KGSVERRSVSLGHPAEGWAWAERSLQPGMTTANTGCLSFHHRGCLLPVLPKLHCGLGGLPLVRAKEIKRVQRAGESSLPVKGLLTVASAVIAVLWGRPSEVTGENEAQHD (peptide, listed as Homo sapiens)
chain: KGSVERRSVSLGHPAEGWAWAERSLQPGMTTANTGCLSFHHRGCLLPVLPKLHCGLGGLPLVRAKEIKRVQRAGESSLPVKGLLTVASAVIAVLWGRPSEVTGENEAQHD
notes: ILDR1 alternative splicing
B9: the “Max. Fold Change over background CD4+ TNFαINFγ double positive DP” value amounted to 184.87, the “Max. Fold Change over background CD8+ TNFαINFγ double positive DP” value turned out to be 6.85, the “Max. Frequency of CD4+ TNFαINFγ DP” value was 0.63 and the “Max. Frequency of CD8+ TNFαINFγ DP” value came to 0.1.

B10: HYKLIQQPISLFSITDRLHKTFSQLPSVHLCSITFQWGHPPIFCSTNDICVTANFCISVTFLKPCFLLHEASASQ (peptide, listed as Homo sapiens)
chain: HYKLIQQPISLFSITDRLHKTFSQLPSVHLCSITFQWGHPPIFCSTNDICVTANFCISVTFLKPCFLLHEASASQ
Turning to B10, the “Maximum Fold Change Over Background CD4+ cells” value turned out to be 50.19, the “Maximum Fold Change Over Background CD8+ cells” value is given as 5.56, the “Maximum Frequency of TNFα/IFNγ Double Positive CD4+ T cells” value is given as 0.39 and the “Maximum Frequency of TNFα/IFNγ Double Positive CD8+ T cells” value was 0.1.

B11: LQAAASGQGKQGVPCPWGCCAYAESPRALISGDAPSQVEREVPGPCLNTHSLSHRSPQLPGLPHPKQPSV (peptide, listed as Homo sapiens)
chain: LQAAASGQGKQGVPCPWGCCAYAESPRALISGDAPSQVEREVPGPCLNTHSLSHRSPQLPGLPHPKQPSV
notes: TONSL alternative splicing
Turning to B11, the “Max. Fold Change over background CD4+ TNFαINFγ double positive DP” value turned out to be 7.86, the “Max. Fold Change over background CD8+ TNFαINFγ double positive DP” value is 2.61, the “Max. Frequency of CD4+ TNFαINFγ DP” value is on record as 0.11 and the “Max. Frequency of CD8+ TNFαINFγ DP” value is 0.1.

B12: YAYKDFLWCFPFSLVFLQEIQICCHVSCLCCICCSTRICLGCLLELFLSRALRALHVLWNGFQLHCQ (peptide, listed as Homo sapiens)
chain: YAYKDFLWCFPFSLVFLQEIQICCHVSCLCCICCSTRICLGCLLELFLSRALRALHVLWNGFQLHCQ
B12: the “Maximum Fold Change Over Background CD4+ cells” value is 111.97, the “Maximum Fold Change Over Background CD8+ cells” value amounted to 4.17, the “Maximum Frequency of TNFα/IFNγ Double Positive CD4+ T cells” value came to 0.87 and the “Maximum Frequency of TNFα/IFNγ Double Positive CD8+ T cells” value was found to be 0.08.

B13: LWFQSSELSPTGAPWPSRRPTWRGTTVSPRTATSSARTCCGTKWPSSQEAALGLGSGLLRFSCGTAAIR (peptide, listed as Homo sapiens)
chain: LWFQSSELSPTGAPWPSRRPTWRGTTVSPRTATSSARTCCGTKWPSSQEAALGLGSGLLRFSCGTAAIR
notes: NME4->DECR2 gene fusion
For B13, the “Maximum Fold Change Over Background CD4+ cells” value was 36.13, the “Maximum Fold Change Over Background CD8+ cells” value was 8.89, the “Maximum Frequency of TNFα/IFNγ Double Positive CD4+ T cells” value amounted to 0.04 and the “Maximum Frequency of TNFα/IFNγ Double Positive CD8+ T cells” value came out at 0.16.

B14: FGLTTLAGRSSHGTSGLRAATHTKSGDGGQGAARQCEKLLELARATRPWGRSTSASSRWTHRGYMCPPRCAVACW (peptide, listed as Homo sapiens)
chain: FGLTTLAGRSSHGTSGLRAATHTKSGDGGQGAARQCEKLLELARATRPWGRSTSASSRWTHRGYMCPPRCAVACW
notes: PEX10 alternative splicing
Turning to B14, the “Max. Fold Change over background CD4+ TNFαINFγ double positive DP” value worked out at 113.91, the “Max. Fold Change over background CD8+ TNFαINFγ double positive DP” value is on record as 4.02, the “Max. Frequency of CD4+ TNFαINFγ DP” value amounted to 0.43 and the “Max. Frequency of CD8+ TNFαINFγ DP” value stood at 0.35.
